One experiment has as its target T1, Human-RAGE-ECD-Fc(IgG1) (human).
T1 construct: also called P38406
The experiment is described as follows: ELISA, antigen coated at 2 ug/mL, anti-human kappa+lambda-HRP.

Another experiment has as its target T2, Cyno-RAGE-ECD-Fc(IgG1) (monkey (cyno)).
T2 construct: also called P38408
The experiment is described as follows: ELISA, antigen with and without NHS-biotin label coated at 4 ug/mL.

In the next experiment the target is T3, Mouse-RAGE-ECD-Fc(IgG1) (mouse).
T3 construct: also called P38410
The experiment is described as above.

A further experiment deals with T4, Human-RAGE-ECD-His (human, UniProt Q15109 23-342).
T4 construct: also called P38405
The description is as above.

For a further experiment, the target named is T5, Cyno-RAGE-ECD-His (monkey (cyno), UniProt Q15109 23-342 (human entry)).
T5 construct: also called P38407
T5 chain: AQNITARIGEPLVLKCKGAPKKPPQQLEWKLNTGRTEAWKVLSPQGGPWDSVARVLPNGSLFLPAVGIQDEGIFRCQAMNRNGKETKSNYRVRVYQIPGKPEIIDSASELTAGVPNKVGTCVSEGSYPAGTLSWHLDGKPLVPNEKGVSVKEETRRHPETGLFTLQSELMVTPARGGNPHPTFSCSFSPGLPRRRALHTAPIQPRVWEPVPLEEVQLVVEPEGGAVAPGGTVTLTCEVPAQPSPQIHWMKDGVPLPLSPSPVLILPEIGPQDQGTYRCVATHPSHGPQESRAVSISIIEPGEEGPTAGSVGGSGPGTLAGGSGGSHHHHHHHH
Described as above.

The next experiment concerns the target T6, Mouse-RAGE-ECD-His (mouse, UniProt Q62151 23-340).
T6 construct: also called P38409
The description is as above.

The target of experiment [1] is T7, RAGE(1-404)-3xflag-mCherry (plasmid p318) on 293F cells (human).
T7 construct: also called p318 cells
The experiment is described as follows: flow cytometry on fixed p318-293F cells, 5 ug scFv in 100 uL, FITC anti-HA detection.

Experiment [2] deals with T8, RAGE(1-404)-3xflag-eBFP (plasmid p605) on HepG2 cells.
T8 construct: also called p605-HepG2 cells; p605 cells
The experiment is described as follows: flow cytometry on fixed p605-HepG2 cells, 1 ug and 5 ug in 100 uL, FITC anti-HA detection. As for the experimental part: (5) 1 μg and 5 μg of antiRAGE(A90)-Fc were respectively added to 100 μL of the incubation system to incubate at 4° C. for 2 h. The cells were washed and resuspended with 0.5% BSA diluted in PBS.
(6) 1 μL of FITC-conjugated antiHA antibody was respectively added to cells without A90-Fc antibody and cells incubated with A90-Fc antibody to incubate at room temperature for 1 h. The cells were washed twice with PBS, and then resuspended with PBS.

T6 sequence (Q62151 other isoform, or with tags, fused parts or gaps): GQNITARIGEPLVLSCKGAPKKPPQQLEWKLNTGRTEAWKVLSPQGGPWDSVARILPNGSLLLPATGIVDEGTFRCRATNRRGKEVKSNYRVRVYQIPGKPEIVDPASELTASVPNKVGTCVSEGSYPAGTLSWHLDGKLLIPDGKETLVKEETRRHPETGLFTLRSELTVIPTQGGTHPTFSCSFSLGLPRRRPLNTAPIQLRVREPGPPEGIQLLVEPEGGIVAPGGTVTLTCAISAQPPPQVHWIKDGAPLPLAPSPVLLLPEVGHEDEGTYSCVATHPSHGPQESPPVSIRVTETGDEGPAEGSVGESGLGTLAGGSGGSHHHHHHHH
T3 sequence (chain, as listed by the source limits assumed): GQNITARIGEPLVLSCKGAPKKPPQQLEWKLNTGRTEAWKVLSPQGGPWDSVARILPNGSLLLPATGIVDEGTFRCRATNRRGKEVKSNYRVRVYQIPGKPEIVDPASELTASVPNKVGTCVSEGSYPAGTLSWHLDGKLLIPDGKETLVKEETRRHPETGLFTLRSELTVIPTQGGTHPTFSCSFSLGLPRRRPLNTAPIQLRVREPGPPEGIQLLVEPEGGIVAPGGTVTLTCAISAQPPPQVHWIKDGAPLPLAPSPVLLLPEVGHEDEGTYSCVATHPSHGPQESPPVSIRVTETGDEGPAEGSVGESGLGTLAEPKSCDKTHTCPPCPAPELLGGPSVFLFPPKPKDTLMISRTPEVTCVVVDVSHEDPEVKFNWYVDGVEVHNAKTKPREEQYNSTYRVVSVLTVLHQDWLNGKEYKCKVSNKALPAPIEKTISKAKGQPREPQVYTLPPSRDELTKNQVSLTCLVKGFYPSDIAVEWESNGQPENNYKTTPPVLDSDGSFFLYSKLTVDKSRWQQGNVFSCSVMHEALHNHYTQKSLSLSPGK

B1: h11E6.16 (antibody, human IgG1, kappa, V domains shown)
VH: EIQLVQSGAEVKKPGASVKVSCKASGYTFTNFGMNWVRQAPGQGLEWMGYINTNTGESIYSEEFKGRFTFTLDTSTSTAYMELSSLRSEDTAVYFCARSRMVTAYGMDYWGQGTSVTVSS
VL: EIVMTQSPATLSLSPGERATLSCKASQNVGTAVAWYQQKPGQSPRLLIFSASNRYTGVPARFSGSGSGTDFTLTISSLQSEDFAVYFCQQYSSYPLTFGQGTKLEIKR
notes: also called h11E6.16 antibody (P38411); P38411
For the molecule B1, the binding result with Human-RAGE-ECD-Fc(IgG1), in the experiment with Cyno-RAGE-ECD-Fc(IgG1), in the experiment with Mouse-RAGE-ECD-Fc(IgG1), with Human-RAGE-ECD-His, in the experiment with Cyno-RAGE-ECD-His and with Mouse-RAGE-ECD-His was “binds” each time.

B2: 6xHis-antiRAGE(A90)-scFv-G4S-HA (scFv)
scFv: HHHHHHQVQLVQSGAEVKKPGSSVKVSCKASGGTFNNYAINWARQAPGQGLEWMGRIVPFFDVTNYAQKFQGRVTITADKSTSTAYMELSSLRSEDTAIYYCAIGSFNWNSGAFDIWGQGTPVTVSSGGGGSGGGGSGGGGSNIQLTQSPSTLSASVGDRVTITCRASQSISSWLAWYQQKPGKAPKLLIYQASSLESGVPSRFSGSGSGTEFTLTIRSLQPEDFAVYFCQQYKDYPLTFGGGTKVDIKGGGGSYPYDVPDYA
notes: also called antiRAGE scFv antibody; antiRAGE-scFv
For B2, the binding result in experiment [1] is “binds”.

B3: antiRAGE(A90)-Fc (antibody, human IgG1, kappa)
heavy: not shown
light: NIQLTQSPSTLSASVGDRVTITCRASQSISSWLAWYQQKPGKAPKLLIYQASSLESGVPSRFSGSGSGTEFTLTIRSLQPEDFAVYFCQQYKDYPLTFGGGTKVDIKRTVAAPSVFIFPPSDEQLKSGTASVVCLLNNFYPREAKVQWKVDNALQSGNSQESVTEQDSKDSTYSLSSTLTLSKADYEKHKVYACEVTHQGLSSPVTKSFNRGEC
notes: also called antiRAGE(A90)-Fc-G4S-HA; antiRAGE-Fc-G4S-HA-ALFA
Consider B3, for which, in experiment [2], the binding result is reported as “binds”.

For the origin of these results see US20250304681A1 (BEIJING ECHO BIOTECH, published 2025).
